According to patent US12534533B2, “Anti-chemokine like receptor 1 humanized antibodies and their therapeutic applications” (OSE IMMUNOTHERAPEUTICS, priority 2019, dated 2026):

Experiments:
[1] = test system: Mice dendritic cells; test: DCs maturation and differentiation, activation markers by FACS; type: cell-based
Protocol: FIG. 1. Effect of the anti-CMKLR1 variants 1G1, 2G1, 3G1 and 4G1 chimeric antibodies on the DCs maturation and differentiation. Mice dendritic cells were incubated during maturation phase (24 h or 48 h) followed by a differentiation phase with excipient or RvE1 or anti-CMKLR1 antibodies variants (mutations on positions 1 and 2 of SEQ ID No. 8, corresponding to the VH-CDR3: 1G1 (LL), 2G1 (LI), 3G1 (IL) or 4G1 (II) or isotype controls (hIgG1 or mIgG)). Cells were then stained for FACS analysis with cell marker antibodies: A. CD80-PE; B. CD86-FITC; C. CD103-PerCPCy5.5; D. I/Ab-APC. Mean of Fluorescence was determined in each condition. E and F represent the viability of the cells measured by FACS using LIVE/DEAD® kit from Life Technologies in each condition after 24 or 48 hours of maturation respectively.
FIG. 16. Study of the myeloid cell activation markers after CMKLR1 pathway activation. Dendritic cells incubated in excipient, RvE1, 2G1 or isotype control (hIgG1) were then stained for FACS analysis with marker antibodies: A. CD80-PE. B. CD86-FITC. C. CD103-PerCPCy5.5. D. CD40-PeCy7. E. I/Ab-APC. Mean of Fluorescence was determined in each condition.
Bone marrow cells were harvested and cultured in RPMI medium supplemented with 10% FBS, glutamine and antibiotics and the dendritic cell differentiation was induced by GM-CSF at 20 ng/ml for 7 days. Then, immature dendritic cells (iDC) were collected and cultured for 24 hours with LPS (100 ng/ml) to induce the maturation from iDC to mDC. Treatments were added during differentiation and maturation at 2 μg/ml.
Dendritic cells were resuspended in PBS-FBS-EDTA and incubated with live and dead (LIVE/DEAD® Fixable Dead Cell Stains Yellow-Life Technologies) for 30 minutes on ice. Staining of CD11c-BV711, CD11b-APCCy7, I/Ab-APC, CD103-PerCPCy5.5, CCR7-V450, CD40-PeCy7, CD80-PE, CD86-FITC (all provided by BD Pharmingen) were performed.

[2] = test system: psoriasis induced by Aldara cream; type: in vivo, mice
Protocol: FIG. 6. Effect of anti-CMKLR1 agonist on an autoimmune disease such as mice psoriasis model. Aldara treated mice for 4 to 6 consecutive days were injected intra-peritoneally with: 2G1 (●) or isotype control antibody (x). A. thicknesses and B weight.
Aldara® cream which is known to induce psoriasis in mice was used on male C57Bl/6 mice (8-10-week old). Mice received a daily topical dose of Aldara. Treatments (anti-CMKLR1 agonist or control compound) were injected intra-peritoneally: […]

[3] = test system: peritonitis induced by Zymosan A; test: peritonitis model (Zymosan A); type: in vivo, mice; details: vs isotype control
Protocol: FIG. 7. Effect of an anti-CMKLR1 antibody on a mice peritonitis model. Preventive injection of anti-CMKLR1 was performed before Zymosan A injection (1 mg per mouse in 1 mL): RvE1 (1 μg per mouse) (●), 2G1 antibody (10 μg per mouse) (□) or isotype control antibody (x). A. PMN numbered during the first 50 hours after Zymosan A injection. B. Macrophages numbered during the first 50 hours after Zymosan A injection. C. Resolution index.
Common peritonitis is induced by intraperitoneal injection of Zymosan A® (1 mg per mouse in 1 mL). Preventive injection of anti-CMKLR1 was performed 5 minutes before Zymosan A injection: RvE1 (1 μg per mouse), 2G1 antibody (10 μg per mouse). Murine peritoneal polymorphonuclear neutrophil (PMN) and macrophages were collected at 2-4-8-16-24 and 48 h after Zymosan A injection and numbered by flow cytometry analysis to determinate the resolution index (Bannenberg et al., 2005).

[4] = target: T1, CMKLR1 receptor (CHO-K1 CMKLR1 cells) (Homo sapiens, UniProt Q99788); test: competition assay, Chemerin-dependent beta-arrestin recruitment by CMKLR1 receptor; type: cell-based; details: antibody 1 μM to 1 nM, Chemerin 2 or 6 nM; FIG. 18B
T1 construct: host or cells: CHO-K1
T1 sequence (Q99788 1-373): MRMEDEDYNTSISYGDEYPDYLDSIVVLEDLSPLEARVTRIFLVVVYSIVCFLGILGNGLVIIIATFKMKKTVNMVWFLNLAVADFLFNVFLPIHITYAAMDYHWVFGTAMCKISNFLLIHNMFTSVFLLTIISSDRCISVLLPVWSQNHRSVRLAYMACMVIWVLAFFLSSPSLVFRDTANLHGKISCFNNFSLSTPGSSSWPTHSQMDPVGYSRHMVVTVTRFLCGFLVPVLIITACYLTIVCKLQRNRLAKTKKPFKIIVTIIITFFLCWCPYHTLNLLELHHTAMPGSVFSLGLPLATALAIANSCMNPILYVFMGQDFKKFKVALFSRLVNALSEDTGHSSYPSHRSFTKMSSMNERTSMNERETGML
Protocol: The day before the assay, CHO-K1 CMKLR1 cells (Discover'X ref 93-0313E2) were plated in pre-warmed cell reagent then plated in a 96-well plate at 100 μl/well of cells as (Discover'X ref 15-103) and incubated […] at 37° C., in a 5% CO2 humidified incubator. The anti-CMLKR1 antibody was diluted (22× in 7-point series of 3-fold dilutions from 1 μM to 1 nM) and cells were incubated 30 min at 37° C. with the antibody. […] The luminescence was measured after Working Detection Solution addition to the cells with a plate reader with 0.5 s integration.

[5] = test system: Caspase-3 in PMN from healthy volunteers; test: Caspase-3 expression in PMN by Western Blot; type: cell-based, human; details: coated Ab at 10 μg/mL; 4 h, 6 h, 11 h; FIG. 26B
Protocol: Neutrophils were isolated from blood of healthy volunteers and cultured for 24 h (Mortality analysis), or 4 h, 6 h, 11 h (Caspase-3 assay), or 5 h (ROS assay) on coated Iso ctrl (cross), chimeric anti-ChemR23 2G1 (square) or different humanized versions of the 2G1 (diamonds). Mortality of PMN was analyzed by incubating PMN with specific markers of the mortality and viability and then counted by picture analysis.
PMN from healthy volunteers were incubated in culture medium with coated Ab at 10 μg/mL for different times and collected for Caspase-3 staining analyzed by Western Blot. The intensity of Capase-3 expression was calculated on WB.

B1: 2G1: parental chimeric anti-CMKLR1 antibody: heavy chain variable domain SEQ ID No. 37, light chain variable domain SEQ ID No. 49 (antibody, V domains shown)
VH: EVQLVASGGGLVQPGGSLKLSCAASGFTFSSYGMSWVRQTPDRRLELVATINRYGGSTYYPDSVKGRFTISRDNAKNTLYLQMSSLKSEDTAMYYCPRLIYYGNEGDSWGQGTTLTVSS
VL: QIVLTQSPAIMSASPGEKVTMTCSASSSVSFMHWYQQKSGTSPKRWIYDTTKLTSGVPARFSGSGSGTFYSLTISSMEAEDAATYYCQQWNSKPPLTFGPGTKLELKR
Question: Which viability of cells ([1]; LIVE/DEAD kit, after 24 or 48 hours of maturation, FIGS. 1E and 1F) does the source give for B1 here?
Answer: enhanced

Question: And the “expression of CD80, CD86, CD103, CD40 and IAb” value ([1]; compared to the excipient or isotype control, FIG. 16)?
Answer: strong decrease

Question: What about the “DCs activation and/or maturation (DCs expressing CD103 and IAb)” value ([1]; maturation 24 h or 48 h, FIG. 1) of the same molecule?
Answer: inhibit DCs activation and/or maturation in a stronger manner than other synthetized antibodies

Question: And the “thickness of the skin” value ([2]; after Aldara administration, e.g. day 15, FIG. 6A)?
Answer: reduces the thickness of the skin

Question: What about the “weight of the animals” value ([2]; mouse, in vivo) of the same molecule?
Answer: not impacted

Question: What about the PMNs number ([3]; first 50 hours after Zymosan A, FIG. 7A) of the same molecule?
Answer: slightly less

Question: And the Macrophages number ([3]; first 50 hours after Zymosan A, FIG. 7B)?
Answer: slightly less

Question: What about the resolution index ([3]; FIG. 7C) of the same molecule?
Answer: better resolution index

Question: And the “chemerin-dependent activation of the beta-arrestin” value [4]?
Answer: did not significantly modify chemerin-dependent activation of the beta-arrestin

Question: What about the caspase-3 cleavage [5] of the same molecule?
Answer: increases caspase-3 cleavage
